For one molecule, activity in VEGFR-3 bioassay (Ba/F3 cell survival and proliferation, tritiated-thymidine incorporation) and activity in VEGFR-2 bioassay (Ba/F3 cell survival and proliferation, tritiated-thymidine incorporation) results are on record in US20070212390A1.

The target of assay [1] is chimeric receptor consisting of the extracellular domain of human VEGFR-3 and the cytoplasmic domain of the erythropoietin receptor, on Ba/F3 cells (human), P35916. Kind of assay: cell-based or functional assay.
Assay [2] concerns the target chimeric receptor consisting of the extracellular domain of mouse VEGFR-2 and the cytoplasmic domain of the erythropoietin receptor, on Ba/F3 cells (mouse), P35918. Kind of assay: cell-based or functional assay.

Sequence of chimeric receptor consisting of the extracellular domain of human VEGFR-3 and the cytoplasmic domain of the erythropoietin receptor, on Ba/F3 cells (human), P35916 (P35916 25-775 limits assumed, change not shown, form in doubt): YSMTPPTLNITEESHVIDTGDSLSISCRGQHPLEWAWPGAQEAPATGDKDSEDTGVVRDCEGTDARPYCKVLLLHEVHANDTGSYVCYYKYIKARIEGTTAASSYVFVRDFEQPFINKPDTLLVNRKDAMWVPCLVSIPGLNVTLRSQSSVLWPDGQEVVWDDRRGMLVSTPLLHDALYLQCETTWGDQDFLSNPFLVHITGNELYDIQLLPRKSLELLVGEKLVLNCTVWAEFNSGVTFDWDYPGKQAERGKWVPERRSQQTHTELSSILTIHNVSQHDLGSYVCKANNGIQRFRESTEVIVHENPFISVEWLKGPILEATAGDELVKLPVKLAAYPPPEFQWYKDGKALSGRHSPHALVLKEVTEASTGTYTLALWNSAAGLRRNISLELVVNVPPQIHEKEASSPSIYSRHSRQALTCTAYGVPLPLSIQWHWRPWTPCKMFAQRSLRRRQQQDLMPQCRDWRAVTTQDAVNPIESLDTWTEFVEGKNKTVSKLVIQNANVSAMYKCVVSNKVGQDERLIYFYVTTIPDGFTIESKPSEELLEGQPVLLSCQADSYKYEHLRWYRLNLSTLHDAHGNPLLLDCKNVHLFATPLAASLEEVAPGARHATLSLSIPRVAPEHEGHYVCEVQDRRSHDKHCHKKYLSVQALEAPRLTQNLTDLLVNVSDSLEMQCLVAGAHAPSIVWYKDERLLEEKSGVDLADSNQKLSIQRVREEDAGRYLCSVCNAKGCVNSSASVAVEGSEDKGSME
Sequence of chimeric receptor consisting of the extracellular domain of mouse VEGFR-2 and the cytoplasmic domain of the erythropoietin receptor, on Ba/F3 cells (mouse), P35918 (P35918 20-762 limits assumed, change not shown, form in doubt): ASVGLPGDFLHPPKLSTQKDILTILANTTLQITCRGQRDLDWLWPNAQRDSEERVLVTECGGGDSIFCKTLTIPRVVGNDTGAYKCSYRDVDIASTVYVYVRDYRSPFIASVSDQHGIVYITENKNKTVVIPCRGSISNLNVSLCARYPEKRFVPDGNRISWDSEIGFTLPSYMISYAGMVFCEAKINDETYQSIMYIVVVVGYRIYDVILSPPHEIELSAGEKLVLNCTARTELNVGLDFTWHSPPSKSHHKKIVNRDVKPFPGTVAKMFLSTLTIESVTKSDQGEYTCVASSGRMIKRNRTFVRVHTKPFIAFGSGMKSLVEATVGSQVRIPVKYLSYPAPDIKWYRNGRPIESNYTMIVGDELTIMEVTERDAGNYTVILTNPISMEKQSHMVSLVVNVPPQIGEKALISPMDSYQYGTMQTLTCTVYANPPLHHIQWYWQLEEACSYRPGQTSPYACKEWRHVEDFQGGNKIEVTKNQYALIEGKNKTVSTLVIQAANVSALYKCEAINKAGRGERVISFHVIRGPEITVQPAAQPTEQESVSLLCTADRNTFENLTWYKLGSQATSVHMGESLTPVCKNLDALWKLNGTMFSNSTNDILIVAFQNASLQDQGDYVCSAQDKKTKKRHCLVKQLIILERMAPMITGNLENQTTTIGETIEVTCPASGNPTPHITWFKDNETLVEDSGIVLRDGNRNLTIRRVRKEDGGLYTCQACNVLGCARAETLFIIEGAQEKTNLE

B1: VEGF-D ΔN.IISS (human VEGF-D with R204,205S point mutations and lacking the N-terminal propeptide), O43915 87-354 (ligand)
chain: ARQDYKDDDDKTRFAATFYDIETLKVIDEEWQRTQCSPRETCVEVASELGKSTNTFFKPPCVNVFRCGGCCNEESLICMNTSTSYISKQLFEISVPLTSVPELVPVKVANHTGCKCLPTAPRHPYSIISSSIQIPEEDRCSHSKKLCPIDMLWDSNKCKCVLQEENPLAGTEDHSHLQEPALCGPHMMFDEDRCECVCKTPCPKDLIQHPKNCSCFECKESLETCCQKHKLFHPDTCSCEDRCPFHTRPCASGKTACAKHCRFPKEKRAAQGPHSRKNP
Regarding B1, the activity in VEGFR-3 bioassay (Ba/F3 cell survival and proliferation, tritiated-thymidine incorporation) in assay [1] is 70 fold. The molecule further gave an activity in VEGFR-2 bioassay (Ba/F3 cell survival and proliferation, tritiated-thymidine incorporation) in assay [2] of 70 fold.
